Laboratory results reported in article PMC5869772, “Quantitative profiling of BATF family proteins/JUNB/IRF hetero-trimers using Spec-seq” (BMC Molecular Biology, 2018).
Each block holds one molecule with its values, some of them ahead of it.

How the values were obtained:
[1] = system: BATF;JUNB (human;human); test: Spec-seq (EMSA); conditions: no IRF; 100 nM BATFx-JUNB, 150 nM IRF, 1 uM dsDNA library; 50 mM K acetate, 20 mM Tris-acetate, 10 mM Mg acetate, 100 ug/ml BSA, pH 7.9 (25 C), 10% glycerol; 30 min on …
[2] = system: BATF2 (bZIP);JUNB (human;human); test: Spec-seq (EMSA); conditions: 100 nM BATFx-JUNB, 150 nM IRF, 1 uM dsDNA library, 50 mM K acetate, 20 mM Tris-acetate, 10 mM Mg acetate, 100 ug/ml BSA, pH 7.9 (25 C), 10% glycerol, 30 min on …
[3] = system: BATF3;JUNB (human;human); test: Spec-seq (EMSA); conditions: no IRF; 100 nM BATFx-JUNB, 150 nM IRF, 1 uM dsDNA library; 50 mM K acetate, 20 mM Tris-acetate, 10 mM Mg acetate, 100 ug/ml BSA, pH 7.9 (25 C), 10% glycerol; 30 min on …
[4] = system: BATF;JUNB;IRF8 (human;human;mouse); test: Spec-seq (EMSA); conditions: reference; 100 nM BATFx-JUNB, 150 nM IRF, 1 uM dsDNA library; 50 mM K acetate, 20 mM Tris-acetate, 10 mM Mg acetate, 100 ug/ml BSA, pH 7.9 (25 C), 10% glycerol; 30 min on …
[5] = system: BATF;JUNB;IRF4 (human;human;human); test: Spec-seq (EMSA); conditions: reference; 100 nM BATFx-JUNB, 150 nM IRF, 1 uM dsDNA library; 50 mM K acetate, 20 mM Tris-acetate, 10 mM Mg acetate, 100 ug/ml BSA, pH 7.9 (25 C), 10% glycerol; 30 min on …
[6] = system: BATF3;JUNB;IRF8 (human;human;mouse); test: Spec-seq (EMSA); conditions: reference; 100 nM BATFx-JUNB, 150 nM IRF, 1 uM dsDNA library; 50 mM K acetate, 20 mM Tris-acetate, 10 mM Mg acetate, 100 ug/ml BSA, pH 7.9 (25 C), 10% glycerol; 30 min on …
[7] = system: BATF2 (bZIP);JUNB;IRF8 (human;human;mouse); test: Spec-seq (EMSA); conditions: reference; 100 nM BATFx-JUNB, 150 nM IRF, 1 uM dsDNA library; 50 mM K acetate, 20 mM Tris-acetate, 10 mM Mg acetate, 100 ug/ml BSA, pH 7.9 (25 C), 10% glycerol; 30 min on …
[8] = system: BATF3;JUNB;IRF4 (human;human;human); test: Spec-seq (EMSA); conditions: reference; 100 nM BATFx-JUNB, 150 nM IRF, 1 uM dsDNA library; 50 mM K acetate, 20 mM Tris-acetate, 10 mM Mg acetate, 100 ug/ml BSA, pH 7.9 (25 C), 10% glycerol; 30 min on …
[9] = system: BATF2 (bZIP);JUNB;IRF4 (human;human;human); test: Spec-seq (EMSA); conditions: reference; 100 nM BATFx-JUNB, 150 nM IRF, 1 uM dsDNA library; 50 mM K acetate, 20 mM Tris-acetate, 10 mM Mg acetate, 100 ug/ml BSA, pH 7.9 (25 C), 10% glycerol; 30 min on …
[10] = target: T1, IRF4 (full length human) (human, UniProt Q15306 1-451); test: native gel or EMSA; complex formed on a dsDNA library: 100 nM BATFx-JUNB heterodimer, 150 nM IRF protein, 1 uM dsDNA library in 1x NEB Cutsmart buffer (pH 7.9) with 10% glycerol, 30 min on ice; native 9% PAGE in Tris/Glycine at 4 °C; conditions: both partners purified
T1 construct: IRF4 (interferon regulatory factor 4), human, full length; also called IRFx; source: E. coli BL21(DE3), purified (Strep-Tactin Superflow), strep-tag cleaved off by thrombin; not shown: Strep-tag, N-terminal, cleaved
T1 sequence (looked up): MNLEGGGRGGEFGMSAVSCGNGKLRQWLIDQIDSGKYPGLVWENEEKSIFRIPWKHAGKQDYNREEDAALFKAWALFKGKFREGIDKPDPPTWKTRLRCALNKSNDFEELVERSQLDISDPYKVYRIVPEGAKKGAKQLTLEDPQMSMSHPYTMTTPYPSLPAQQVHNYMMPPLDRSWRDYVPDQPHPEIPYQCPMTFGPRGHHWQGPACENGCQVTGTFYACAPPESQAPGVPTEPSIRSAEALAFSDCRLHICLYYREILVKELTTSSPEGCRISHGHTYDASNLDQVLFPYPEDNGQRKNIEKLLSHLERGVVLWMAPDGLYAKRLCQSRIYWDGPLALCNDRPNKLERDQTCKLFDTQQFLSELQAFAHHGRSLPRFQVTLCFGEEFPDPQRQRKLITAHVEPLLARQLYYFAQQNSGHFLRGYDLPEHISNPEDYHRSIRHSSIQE

[11] = target: T2, IRF8 (full length mouse) (mouse, UniProt P23611 1-424); test: as above; conditions: both partners purified
T2 construct: IRF8 (interferon regulatory factor 8), mouse, full length; also called IRFx; source: E. coli BL21(DE3), purified (Strep-Tactin Superflow), strep-tag cleaved off by thrombin; not shown: Strep-tag, N-terminal, cleaved
T2 sequence (looked up): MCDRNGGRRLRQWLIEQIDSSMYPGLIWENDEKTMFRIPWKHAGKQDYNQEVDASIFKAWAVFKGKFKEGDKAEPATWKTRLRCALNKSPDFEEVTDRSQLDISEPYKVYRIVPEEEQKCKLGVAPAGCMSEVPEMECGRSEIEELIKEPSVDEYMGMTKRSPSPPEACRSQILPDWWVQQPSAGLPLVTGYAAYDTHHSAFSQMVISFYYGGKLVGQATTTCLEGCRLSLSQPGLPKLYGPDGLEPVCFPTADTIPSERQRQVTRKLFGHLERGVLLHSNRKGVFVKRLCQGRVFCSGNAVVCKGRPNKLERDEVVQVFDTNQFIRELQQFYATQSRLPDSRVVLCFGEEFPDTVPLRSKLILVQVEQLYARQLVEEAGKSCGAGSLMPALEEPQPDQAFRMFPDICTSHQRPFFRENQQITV

Molecule: CRE (TGACGTCA)
binding signal (kT (-ln bound/unbound)) [1]: -1.05
binding signal (kT (-ln bound/unbound)) ([2]; no IRF): -1.32
binding signal (kT (-ln bound/unbound)) [3]: -1.75

Molecule: TRE-0sp (TGAGTCAT)
binding signal (kT (-ln bound/unbound)) [1]: -1.05
binding signal (kT vs TRE-0sp) [4]: 0
binding signal (kT (-ln bound/unbound)) [2]: -0.903
binding signal (kT vs TRE-0sp) [5]: 0
binding signal (kT vs TRE-0sp) [6]: 0
binding signal (kT vs TRE-0sp) [7]: 0
binding signal (kT vs TRE-0sp) [8]: 0
binding signal (kT vs TRE-0sp) [9]: 0

Molecule: TRE-1sp (ATGAGTCA)
binding signal (kT (-ln bound/unbound)) [1]: -1.25
binding signal (kT (-ln bound/unbound)) [2]: -1.01

binding result [10]: binds
binding result [11]: binds
B1: BATF–JUNB hetero-dimer (complex, human)
chain 1: MPHSSDSSDSSFSRSPPPGKQDSSDDVRRVQRREKNRIAAQKSRQRQTQKADTLHLESEDLEKQNAALRKEIKQLTEELKYFTSVLNSHEPLCSVLAASTPSPPEVVYSAHAFHQPHVSSPRFQP
chain 2: KMNHVTPPNVSLGATGGPPAGPGGVYAGPEPPPVYTNLSSYSPASASSGGAGAAVGTGSSYPTTTISYLPHAPPFAGGHPAQLGLGRGASTFKEEPQTVPEARSRDATPPVSPINMEDQERIKVERKRLRNRLAATKCRKRKLERIARLEDKVKTLKAENAGLSSTAGLLREQVAQLKQKVMTHVSNGCQLLLGVKGHAF
notes: BATF, human, full length; Heterodimer formed by co-expression before purification; also called BATFx–JUNB; source: SHuffle T7 Express E. coli, co-expressed, purified (Ni-NTA agarose), mCherry cleaved off with ProTEV Plus; not shown: mCherry, N-terminal, cleaved

binding result [10]: binds
binding result [11]: binds
B2: BATF2–JUNB hetero-dimer (complex, human)
chain 1: MHLCGGNGLLTQTDPKEQQRQLKKQKNRAAAQRSRQKHTDKADALHQQHESLEKDNLALRKEIQSLQAELAWWSRTLHVHERLCPMDCASCSAPGLLGCWDQAEGLLGPGPQGQHGCREQLELFQTPGSCYPAQPLSPGPQP
chain 2: B1 chain 2
notes: Heterodimer formed by co-expression before purification; also called BATFx–JUNB; source: SHuffle T7 Express E. coli, co-expressed, purified (Ni-NTA agarose), mCherry cleaved off with ProTEV Plus; not shown: mCherry, N-terminal, cleaved
